PMC3904923, “Pivoting between Calmodulin Lobes Triggered by Calcium in the Kv7.2/Calmodulin Complex” (PLoS ONE, 2014)

Key:
Conditions in all cases: both partners purified
[1] = biological target: T1, CaM N-lobe (residues 1–78) (human, UniProt P0DP23 2-79); test: other fluorescence titration; competition: 12.5 nM D-CaM mixed with helix A (65.6 nM) or helix B (42.6 nM), isolated lobe added incrementally; with Ca2+; one site Hill fit, Kd derived assuming 1:1 binding
T1 construct: human calmodulin N-lobe, residues 1-78; cDNA from the group of Daniel L. Minor Jr; also called N-domain; CaM 1–78; source: produced as described previously [28], purified

[2] = biological target: T2, CaM C-lobe (residues 79–148) (human, UniProt P0DP23 80-149); test: as above
T2 construct: human calmodulin C-lobe, residues 79-148; cDNA from the group of Daniel L. Minor Jr; also called C-domain; CaM 79–148; source: produced as described previously [28], purified

dansylated calmodulin [3] = biological target: T3, dansylated calmodulin (rat, UniProt P0DP30 1-149, dansyl group covalently bound to CaM (position not given)); test: other fluorescence titration; 12.5 nM D-CaM, ligand added incrementally, enhancement of dansyl emission; 25 mM Tris-HCl, 120 mM KCl, 5 mM NaCl, 2 mM MgCl2, 10 mM EGTA, pH 7.4; no free Ca2+; apparent affinity (EC50 of a Hill fit)
T3 construct: calmodulin, rat brain, NM_017326; also called D-CaM; dansyl-CaM

[4] = biological target: T1, CaM N-lobe (residues 1–78); test: other fluorescence titration; competition: 12.5 nM D-CaM mixed with helix A (46.4 nM) or helix B (20.1 nM), isolated lobe added incrementally; no Ca2+; one site Hill fit, Kd derived assuming 1:1 binding
[5] = biological target: T2, CaM C-lobe (residues 79–148); test: as above
dansylated calmodulin [6] = biological target: T3, dansylated calmodulin; test: other fluorescence titration; 12.5 nM D-CaM, ligand added incrementally, enhancement of dansyl emission; D-CaM binding buffer with 3.9 µM free Ca2+ (9.63 mM Ca2+, 2 mM Mg2+, 10 mM EGTA, pH 7.4); apparent affinity (EC50 of a Hill fit)

B1: Kv7.2 helix A (hA residues G310–T359) (domain or fragment, human, UniProt O43526 310-359, looked up)
chain: GILGSGFALKVQEQHRQKHFEKRRNPAAGLIQSAWRFYATNLSRTDLHST
notes: helix A of human Kv7.2 (KCNQ2) Y15065, residues G310-T359; also called segment A; source: E. coli BL21-DE3, purified (GSH sepharose)
How did the Kd [1] turn out when B1 was run?
Its Kd is 0.267 µM.

What about the Kd [2] of the same binder?
Its Kd is 0.017 µM.

And the EC50 (dansylated calmodulin [3])?
The EC50 was 0.0464 µM.

What about the Kd [4] of the same binder?
The Kd was 0.53 µM.

What about the Kd [5] of the same binder?
Its Kd is 0.169 µM.

What about the EC50 (dansylated calmodulin [6]) of the same binder?
Its EC50 is 0.0656 µM.
